Here are results for 4 molecules from patent publication US20060264616.

Where a chain is given by its changes, count along the chain named. Names and notes keep the numbering of the source.

Series [1] addresses reconstituted tissue factor (Innovin, Dade) and membrane (UniProt P13726).
Series [2] has as its target T1, reconstituted tissue factor (Innovin, Dade) and membrane, P13726.
T1 chain: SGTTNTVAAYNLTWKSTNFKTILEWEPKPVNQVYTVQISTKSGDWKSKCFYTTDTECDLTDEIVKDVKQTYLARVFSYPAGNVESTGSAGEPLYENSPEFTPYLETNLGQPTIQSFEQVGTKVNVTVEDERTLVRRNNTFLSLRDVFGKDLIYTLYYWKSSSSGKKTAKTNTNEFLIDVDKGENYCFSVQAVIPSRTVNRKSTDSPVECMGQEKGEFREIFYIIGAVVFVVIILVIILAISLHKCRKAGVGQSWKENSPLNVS

Regarding Factor VII mutant Q11E33I34F35, in series [1], the “activity (competitive assay described in Example 6)” value was “displayed similar activity as the Q11E33F34I35 mutant”.

B1: factor VII F5K (protein)
chain: ANAKLEELRPGSLERECKEEQCSFEEAREIFKDAERTKLFWISYSDGDQCASSPCQNGGSCKDQLQSYICFCLPAFEGRNCETHKDDQLICVNENGGCEQYCSDHTGTKRSCRCHEGYSLLADGVSCTPTVEYPCGKIPILEKRNASKPQGRIVGGKVCPKGECPWQVLLLVNGAQLCGGTLINTIWVVSAAHCFDKIKNWRNLIAVLGEHDLSEHDGDEQSRRVAQVIIPSTYVPGTTNHDIALLRLHQPVVLTDHVVPLCLPERTFSERTLAFVRFSLVSGWGQLLDRGATALELMVLNVPRLMTQDCLQQSRKVGDSPNITEYMFCAGYSDGSKDSCKGDSGGPHATHYRGTWYLTGIVSWGQGCATVGHFGVYTRVSQYIEWLQKLMRSEPRPGVLLRAPFP
Take B1: the “activity in the competitive assay described in Example 6” value in series [2] was “a protein with 33% of the activity of wild type factor VII”.

B2: factor VII mutant Q11E33D36 (protein)
chain: B1 chain with K4F, P10Q, K32E, E35D
Regarding B2, in series [2], the “activity in the competitive assay described in Example 6” value is recorded as “had 70% the activity of the Q11E33 mutant”.

B3: Factor VII mutant Q11E33F34I35 (protein)
chain: B1 chain with K4F, P10Q, K32E, D33F, A34I
Turning to B3, the “activity in the competitive assay described in Example 6” value in series [2] is reported as “The activity of the resulting mutant Q11E33F34135 was 60% that of the Q11E33F34 mutant”.
